From the Human Domainome abundance scans (Beltran et al. 2025)

B1: SWI/SNF complex subunit SMARCC1, residues 620 to 663; numbered along this chain, Q92922 (parent)
chain: GREWTEQETLLLLEALEMYKDDWNKVSEHVGSRTQDECILHFLR

Variants of: B1
Test: abundance fitness (aPCA) (normalised: wild type 0, dead -1); higher = more abundant; growth selection in yeast, the domain comes from the species named
Conditions: Homo sapiens

Abundance fitness, by site and new letter:
M18: G -0.24; L 0.063; K -0.076; N -0.018; R 0.142; W -0.2; A 0.115; C -0.158; E -0.135; T 0.1; Q 0.056; Y -0.129; P -0.583; S -0.168; D -0.097; I -0.264; V -0.002; F -0.1; H -0.04
E17: R -0.007; S -0.308; H -0.357; I -0.553; D 0.054; T -0.175; A -0.087; M -0.722; W -0.716; C -0.763; G -0.213; V -0.503; K 0.139; Q -0.033; F -0.548
E6: G -0.194; N -0.17; V -0.227; M 0.099; T -0.12; R -0.137; I -0.12; Y -0.178; P -0.264; K 0.181; W -0.155; A 0.071; D -0.164; C -0.069; S -0.441; L -0.234; F -0.265; Q 0.212
Q7: L -0.578; P -0.381; G -0.052; V -0.227; R 0.206; T 0.075; I 0.341
D21: H 0.102; V -0.419; M -0.363; K 0.294; G -0.046; W -0.578; S -0.078; A -0.066; I -0.601; E 0.225; N 0.227; T -0.17; Q 0.067; P 0.019; R 0.268
W23: H -0.696; A -0.712; D -0.374; F -0.186; T -0.786; P -0.535; K -0.503; C -0.48; N -0.579; G -0.631; L -0.528; E -0.577; M -0.32; V -0.783; I -0.255
A15: P -1.19; L -0.926; F -0.616; V -0.886; E -0.716; R -0.82; Y -0.746; D -0.562; K -0.925; S -0.043; G 0.03; H -0.707; Q -0.72
T5: Y -0.116; N -0.086; W -0.693; R -0.241; L -0.174; I -0.201; K 0.03; M 0.11; Q -0.127; P -0.572; V -0.461
K20: V -0.123; N -0.105; H 0.021; S -0.2; Q -0.278; F -0.226; P 0.058; M -0.118; W -0.737; A -0.139; R -0.234; G -0.188; E -0.085; L -0.618; I -0.019; T -0.14; D -0.062; C -0.375
L11: N -0.304; D -0.19; C -0.521; E -0.281; F -0.096; R -0.139; S 0.024; W -0.258; G -0.154; P -0.58; I -0.29; K 0.021; T 0.016; V -0.064; M 0.138; A -0.134
Y19: G -0.108; K -0.263; V -0.69; R -0.55; M -0.62; S -0.362; E -0.216; I -0.693; W -0.081; C 0.09; P -0.952; H 0.062; L -0.776; Q -0.423; T -0.298; D -0.218
E8: Y -1.21; P -0.593; I -0.746; T -0.651; C -0.616; A -0.808; Q -0.098; F -0.702; V -1; H -0.54; G -0.861; M -0.482; N -0.584; W -1.06; L -0.936; S -1.01; D -0.76
E14: V -0.552; M -0.267; N -0.164; Q -0.045; I -0.97; H -0.311; D -0.177; L -0.549; C -0.684; R -0.28; A 0.007; K -0.006; T -0.18; S -0.27; Y -0.428; P -1.15; G -0.27
T9: D -0.075; W -0.595; H -0.023; K 0.158; G -0.098; C -0.015; F 0.004; A -0.085; R 0.252; E -0.037; P -0.449; N -0.04; M 0.037; Y -0.022; Q 0.319; S -0.01; I 0.264; L -0.044
L10: R 0.158; C 0.243; Y -0.407; I -0.016; T 0.237; W -0.137; Q 0.251; S 0.147; F -0.008; N -0.247; E 0.082; K 0.176; H 0.084; V -0.04; A -0.019; P -0.287; M -0.21
L12: Q -0.372; C -0.401; A -0.213; P -0.709; H -0.413; T -0.602; D -0.259; E -0.129; G 0.009; M -0.32; V -0.341; N -0.938; R -0.718; K -0.428; Y -0.103; S -0.651; F 0.016
L16: E 0.274; R 0.469; Y 0.334; C 0.197; A 0.16; F -0.231; I 0.079; Q 0.428; P -0.77; H 0.303; M 0.235; D -0.237; S 0.094; V 0.224; T 0.316; N 0.136; W 0.024; G -0.05
K25: H -0.045; S -0.011; T -0.129; A 0.091; I -0.426; P -0.377; E -0.14; G -0.038; D -0.331; Q -0.122; N -0.245; M 0.194; C -0.064; Y -0.473; R 0.072; L 0.072; W -0.562
L13: T 0.531; H -0.166; A 0.285; V -0.126; I 0.044; W -0.314; Y -0.229; S -0.259; Q -0.197; R 0.127; D 0.01
D22: E -0.017; G -0.419; H -0.264; Q -0.112; C -0.122; T -0.581; I -0.733; Y -0.714; V -0.526; L -0.44; S 0.04; A -0.447
N24: Q 0.173; R -0.032; L 0.013; K 0.155; P 0.045; D 0.024; G 0.075; Y -0.097; E 0.042; T -0.029; M 0.065; S 0.119; C -0.001; A 0.027; W -0.168; I -0.13; H 0.006
V26: E -0.406; N -0.533; G -0.686; H -0.683; A 0.006; L -0.513; P -0.919; I -0.051; D -0.768; C 0.543
